Reference: article PMC7141810, “UBP12 and UBP13 negatively regulate the activity of the ubiquitin-dependent peptidases DA1, DAR1 and DAR2” (eLife, 2020)

B1: HIS-MBP-DAR2 (natural protein, Arabidopsis thaliana, UniProt Q0WSN2 1-528, looked up)
chain: MDSSSSSSSSSPSSSYGVARVSHISNPCIFGEVGSSSSSTYRDKKWKLMKWVSKLFKSGSNGGGSGAHTNHHPPQFQEDENMVFPLPPSSLDDRSRGARDKEELDRSISLSLADNTKRPHGYGWSMDNNRDFPRPFHGGLNPSSFIPPYEPSYQYRRRQRICGGCNSDIGSGNYLGCMGTFFHPECFRCHSCGYAITEHEFSLSGTKPYHKLCFKELTHPKCEVCHHFIPTNDAGLIEYRCHPFWNQKYCPSHEYDKTARCCSCERLESWDVRYYTLEDGRSLCLECMETAITDTGECQPLYHAIRDYYEGMYMKLDQQIPMLLVQREALNDAIVGEKNGYHHMPETRGLCLSEEQTVTSVLRRPRLGAHRLVGMRTQPQRLTRKCEVTAILVLYGLPRLLTGAILAHELMHGWLRLNGFRNLNPEVEEGICQVLSYMWLESEVLSDPSTRNLPSTSSVATSSSSSFSNKKGGKSNVEKKLGEFFKHQIAHDASPAYGGGFRAANAAACKYGLRRTLDHIRLTGTFPL
notes: DAR2, Arabidopsis thaliana, AT2G39830; source: E. coli BL21 (DE3), purified (NI-NTA agarose beads)
B2: HIS-MBP-DAR1 (natural protein, Arabidopsis thaliana, UniProt Q8W4F0 1-553, looked up)
chain: MGWLTKILKGSSHKFSDGQCNGRYREDRNLEGPRYSAEGSDFDKEEIECAIALSLSEQEHVIPQDDKGKKIIEYKSETEEDDDDDEDEDEEYMRAQLEAAEEEERRVAQAQIEEEEKRRAEAQLEETEKLLAKARLEEEEMRRSKAQLEEDELLAKALQESMNVGSPPRYDPGNILQPYPFLIPSSHRICVGCQAEIGHGRFLSCMGGVWHPECFCCNACDKPIIDYEFSMSGNRPYHKLCYKEQHHPKCDVCHNFIPTNPAGLIEYRAHPFWMQKYCPSHERDGTPRCCSCERMEPKDTKYLILDDGRKLCLECLDSAIMDTHECQPLYLEIREFYEGLHMKVEQQIPMLLVERSALNEAMEGEKHGHHHLPETRGLCLSEEQTVTTVLRRPRIGAGYKLIDMITEPCRLIRRCEVTAILILYGLPRLLTGSILAHEMMHAWLRLNGYPNLRPEVEEGICQVLAHMWLESETYAGSTLVDIASSSSSAVVSASSKKGERSDFEKKLGEFFKHQIESDSSSAYGDGFRQGNQAVLKHGLRRTLDHIRLTGTFP
notes: DAR1, Arabidopsis thaliana, AT4G36860; source: E. coli BL21 (DE3), purified (NI-NTA agarose beads)
B3: HIS-MBP-DA1 (natural protein, Arabidopsis thaliana, UniProt P0C7Q8 1-532, looked up)
chain: MGWFNKIFKGSNQRLRVGNNKHNHNVYYDNYPTASHDDEPSAADTDADNDEPHHTQEPSTSEDNTSNDQENEDIDRAIALSLLEENQEQTSISGKYSMPVDEDEQLARALQESMVVGNSPRHKSGSTYDNGNAYGAGDLYGNGHMYGGGNVYANGDIYYPRPITFQMDFRICAGCNMEIGHGRFLNCLNSLWHPECFRCYGCSQPISEYEFSTSGNYPFHKACYRERYHPKCDVCSHFIPTNHAGLIEYRAHPFWVQKYCPSHEHDATPRCCSCERMEPRNTRYVELNDGRKLCLECLDSAVMDTMQCQPLYLQIQNFYEGLNMKVEQEVPLLLVERQALNEAREGEKNGHYHMPETRGLCLSEEQTVSTVRKRSKHGTGKWAGNITEPYKLTRQCEVTAILILFGLPRLLTGSILAHEMMHAWMRLKGFRTLSQDVEEGICQVMAHKWLDAELAAGSTNSNAASSSSSSQGLKKGPRSQYERKLGEFFKHQIESDASPVYGDGFRAGRLAVHKYGLRKTLEHIQMTGRFPV
notes: DA1, Arabidopsis thaliana, AT1G19270; source: E. coli BL21 (DE3), purified (NI-NTA agarose beads)

Columns and labels:
GST-UBP12 = target: T1, GST-UBP12 (Arabidopsis thaliana, UniProt Q9FPT1 1-1116); test: pull-down; in vitro; equal amounts of free GST, GST-UBP12 or GST-UBP13 as baits incubated with HIS-MBP-DA1, -DAR1 or -DAR2; purification with anti-GST beads; Western blot; conditions: both partners purified
T1 construct: UBP12, Arabidopsis thaliana, AT5G06600; called full-length; also called full-length GST-UBP12; source: E. coli BL21 (DE3), purified (Glutathione Sepharose 4B beads)
T1 sequence (looked up): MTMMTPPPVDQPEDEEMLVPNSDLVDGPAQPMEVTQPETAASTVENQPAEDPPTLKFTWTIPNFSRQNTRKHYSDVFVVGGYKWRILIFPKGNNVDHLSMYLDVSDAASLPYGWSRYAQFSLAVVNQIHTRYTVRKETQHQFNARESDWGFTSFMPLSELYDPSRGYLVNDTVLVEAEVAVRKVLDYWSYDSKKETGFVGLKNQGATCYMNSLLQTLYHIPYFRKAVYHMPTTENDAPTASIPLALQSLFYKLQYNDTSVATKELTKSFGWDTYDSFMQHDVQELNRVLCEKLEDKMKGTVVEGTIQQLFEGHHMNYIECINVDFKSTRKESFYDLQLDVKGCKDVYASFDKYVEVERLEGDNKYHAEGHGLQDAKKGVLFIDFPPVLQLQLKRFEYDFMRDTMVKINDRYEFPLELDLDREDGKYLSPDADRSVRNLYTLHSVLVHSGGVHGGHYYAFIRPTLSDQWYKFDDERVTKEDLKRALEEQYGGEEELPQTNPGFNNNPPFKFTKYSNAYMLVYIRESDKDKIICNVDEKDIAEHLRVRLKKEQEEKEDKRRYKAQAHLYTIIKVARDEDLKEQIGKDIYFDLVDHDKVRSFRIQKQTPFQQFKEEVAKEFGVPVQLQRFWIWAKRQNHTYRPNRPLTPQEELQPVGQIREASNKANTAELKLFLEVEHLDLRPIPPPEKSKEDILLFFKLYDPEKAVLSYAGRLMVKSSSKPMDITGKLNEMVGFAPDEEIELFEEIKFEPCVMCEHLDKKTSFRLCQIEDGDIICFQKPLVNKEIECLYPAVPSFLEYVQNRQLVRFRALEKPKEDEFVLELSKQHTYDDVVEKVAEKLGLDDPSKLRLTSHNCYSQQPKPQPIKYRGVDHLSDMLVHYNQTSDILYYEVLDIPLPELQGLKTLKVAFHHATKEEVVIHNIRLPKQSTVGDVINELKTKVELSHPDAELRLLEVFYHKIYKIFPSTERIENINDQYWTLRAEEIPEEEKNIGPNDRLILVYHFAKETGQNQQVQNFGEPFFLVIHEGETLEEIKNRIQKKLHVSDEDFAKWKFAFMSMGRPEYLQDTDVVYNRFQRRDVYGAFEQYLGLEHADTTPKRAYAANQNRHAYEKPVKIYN

GST-UBP13 = target: T2, GST-UBP13 (Arabidopsis thaliana, UniProt Q84WU2 1-1115); test: as above; conditions: both partners purified
T2 construct: UBP13, Arabidopsis thaliana, AT3G11910; called full-length; also called full-length GST-UBP13; source: E. coli BL21 (DE3), purified (Glutathione Sepharose 4B beads)
T2 sequence (looked up): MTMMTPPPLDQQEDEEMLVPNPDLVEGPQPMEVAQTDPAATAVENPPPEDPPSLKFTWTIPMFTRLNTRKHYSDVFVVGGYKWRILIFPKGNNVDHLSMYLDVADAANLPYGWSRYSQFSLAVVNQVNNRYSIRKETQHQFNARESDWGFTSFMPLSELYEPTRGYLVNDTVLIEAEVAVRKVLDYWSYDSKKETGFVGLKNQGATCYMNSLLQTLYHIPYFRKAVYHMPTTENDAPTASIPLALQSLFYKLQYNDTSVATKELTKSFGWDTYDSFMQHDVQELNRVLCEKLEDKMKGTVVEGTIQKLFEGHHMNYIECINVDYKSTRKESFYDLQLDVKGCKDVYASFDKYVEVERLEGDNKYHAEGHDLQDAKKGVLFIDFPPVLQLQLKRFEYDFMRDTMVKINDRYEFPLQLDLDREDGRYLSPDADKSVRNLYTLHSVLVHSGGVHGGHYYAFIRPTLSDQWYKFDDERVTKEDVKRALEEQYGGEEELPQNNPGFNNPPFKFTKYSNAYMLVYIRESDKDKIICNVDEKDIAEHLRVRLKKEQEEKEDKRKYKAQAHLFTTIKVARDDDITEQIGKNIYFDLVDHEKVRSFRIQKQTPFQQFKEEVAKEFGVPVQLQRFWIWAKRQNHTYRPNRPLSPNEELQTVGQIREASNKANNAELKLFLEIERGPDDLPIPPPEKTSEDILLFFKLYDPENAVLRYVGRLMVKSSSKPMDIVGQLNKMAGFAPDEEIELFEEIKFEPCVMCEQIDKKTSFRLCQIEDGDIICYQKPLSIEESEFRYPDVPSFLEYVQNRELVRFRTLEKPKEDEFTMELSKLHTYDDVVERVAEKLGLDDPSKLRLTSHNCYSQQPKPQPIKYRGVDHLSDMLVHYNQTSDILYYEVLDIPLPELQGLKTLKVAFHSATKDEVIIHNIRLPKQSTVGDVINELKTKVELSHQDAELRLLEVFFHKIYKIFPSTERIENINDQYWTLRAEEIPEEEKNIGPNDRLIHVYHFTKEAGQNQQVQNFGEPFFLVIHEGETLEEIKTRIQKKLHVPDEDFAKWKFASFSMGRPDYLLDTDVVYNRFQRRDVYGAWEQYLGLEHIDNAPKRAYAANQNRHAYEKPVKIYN

Binder | binding result (GST-UBP12) | binding result (GST-UBP13)
B1 | binds | binds
B2 | binds | binds
B3 | binds | binds
